Tests used:
[1] = molecular target: M4N-His (M4N with the stop helix extended by a C-terminal His6-tag); assay: SEC-MALS; static light scattering: Superdex S200 gel size exclusion column coupled to a miniDAWN Tristar laser photometer and a differential refractometer; buffer A (50 mM Tris pH 8, 150 mM NaCl)
[2] = molecular target: M4NΔC (M4N without stop helix); assay: as above

Row | stoichiometry N [1] | stoichiometry N [2] | Substance
1 | 2 |  | M4N-His (M4N with the stop helix extended by a C-terminal His6-tag)
2 |  | 2 | M4NΔC (M4N without stop helix)

Reference: publication PMC5074805
